Measured values published in PMC9886945.

What was measured:
[1] = molecular target: Mtb RNAP holoenzyme with σ^B in which residues 252-323 (subregion 4.2) are deleted (M. tuberculosis) (UniProt P9WGZ1); experiment: SEC
[2] = molecular target: Mtb RNAP holoenzyme with σ^B in which residues 252-323 (subregion 4.2) are deleted (M. tuberculosis) (UniProt P9WGZ1); experiment: negative stain EM

Mtb RNAP holoenzyme with σ^B in which residues 252-323 (subregion 4.2) are deleted, P9WGZ1;P9WGY9;P9WGY7;P9WGY5;P9WGI5
stoichiometry N [1]: 8
stoichiometry N [2]: 8
